In the supplement of paper PMC12764529:
± gives the half width of the 95% confidence interval.

Tests used:
[1] = folding stability dG unfold from trypsin proteolysis; higher = more stable
In short: (§1)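 Designed mini-proteins (under 80 residues, no cysteine) in a PA-tagged cDNA display construct were digested with trypsin and chymotrypsin. Each protease was used at 11 concentrations (threefold dilutions) plus a no-protease condition, followed by sequencing. K50 was inferred by Bayesian fitting of sequencing counts, and unfolding free energy was derived against a sequence-predicted unfolded-state K50 and a shared folded-state K50, per protease or combined. Only designs with AlphaFold2 dimer inter-PAE above 15 were kept.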

[2] = folding stability dG unfold from chymotrypsin proteolysis; higher = more stable
In short: as §1

[3] = folding stability dG unfold (combined trypsin and chymotrypsin); higher = more stable
In short: as §1

Sequence	folding stability dG unfold [1] [kcal/mol]	folding stability dG unfold [2] [kcal/mol]	folding stability dG unfold [3] [kcal/mol]
SAGEEIAKRLAEELKEKGYEVEVKVTVEYDEETGEVTITIEIKVKPKPAPPVKIEKKLEGMSEEEKKALSAG [r5_413_TrROS_Hall]	0.113 ± 0.12	0.137 ± 0.084	0.187 ± 0.29
SAGGSAGGSLTVSFPGITLTLETVPGTGKIIATVTFPGGEVRTISSDVPLSELPPVVREALELLSAGGSAGG [r6_749_JUSTAS]	2.72 ± 0.087	2.67 ± 0.051	2.74 ± 0.072
SAGGSAGGSAKMIIRIRNKNGKIIELTLEEVAKKLGLSKEEMTAEEILKKLKENIEKVEILPSAGGSAGGSA [r18_403_TrROS_Hall]	2.9 ± 0.047	3.18 ± 0.048	3.1 ± 0.07
SAGQPGKPIRKYTFDLPDDDKITVEVYMYPDGNMMIKIEDNNGKERNIMIPANDLQNMPIEDLVKWLRSAGG [r19_47_TrROS]	2.73 ± 0.12	3.57 ± 0.062	3.33 ± 0.36
SAGGSAGGKVTVDPAKVKAILTLKDGSKLIVLEDGVLLYNPKTEKVTLVSLSDLKKLPEDAPVPSAGGSAGG [r6_889_TrMRF]	1.61 ± 0.042	1.85 ± 0.026	1.74 ± 0.054
SAGGSAGGSAGGGVTLPTGDIVVPVEYTTTVPVLTYNPTLGVSYFFTLTVTTSSTVYVGLSAGGSAGGSAGG [r7_374_JUSTAS]	2.71 ± 0.057	3.868 ± 0.026	3.37 ± 0.082
SAGGSAGGSAKKPKKFKITKISTVKNKNGKTYYKLVIEDEKTKKKYVFVFPKNKEEILKALSAGGSAGGSAG [r3_57_TrROS_Hall]	2 ± 0.061	2.53 ± 0.062	2.45 ± 0.15
SAGGSAGGMVKVLVNPDGGATFIFNKDGSTSTIPVPYTTLEDVKAAVEALAKEYGIEVEEIVPASAGGSAGG [r6_254_JUSTAS]	0.395 ± 0.085	1.38 ± 0.12	0.982 ± 0.15
SAGGSAKKDGTITIKIPVKAPKDKNGKVFKPSAEAIKAKFGELGFDFEIEEIKESETYLEIKIKVKSAGGSA [r15_225_TrMRF]	0.51 ± 0.086	1.78 ± 0.093	1.53 ± 0.21
SAGGSAGGSPKVTTSTSSSVLGNGRLESTVSNPDLGVTTLTLTDPESDVVTTFTETAGSTTPAASAGGSAGG [r6_757_JUSTAS]	0.132 ± 0.025	0.815 ± 0.037	0.606 ± 0.031
SAGGSAGGSMYIVRIEVVNEETGKTEEIELEVSEEEAEELAKELAEKLPNIKEIKVEIRPLPESAGGSAGGS [r12_757_TrROS_Hall]	1.37 ± 0.15	1.96 ± 0.051	1.66 ± 0.21
MTKKTVTLPIPEPIRAAIEAGKPLPLEEIVDLVRDVVAKELGFKDVKVLSVEIKPLPNGEIVVEVTVEFPES [r1_290_TrMRF]	3.09 ± 0.28	2.79 ± 0.16	2.89 ± 0.23
SAGGSAGGSAGLKLLEKELRVLTYDPETGSLSESTLRVPVLLVPPVPVPVLDPNGGLTLASAGGSAGGSAGG [r11_307_TrMRF]	-0.696 ± 0.27	0.407 ± 0.14	0.143 ± 0.11
SAGGMKLEIYLRFKTEEEAKKAVEELIRKLLEELGLEVEVEVVYDEETKEVYVKVTVTFPELPEEELSAGGS [r8_17_TrROS_Hall]	3.67 ± 0.19	4.7 ± 0.29	4.4 ± 0.39
SAGGAFIKDFDVEEDPNGHRKFKFELPNGWKYDITIHPDFPQIEIKPIKPIEPPPIPADDPEQAEEQSAGGS [r16_482_TrROS]	0.699 ± 0.11	0.429 ± 0.47	0.552 ± 0.37
SAGMKPNETLPNAIIRIENSKGKVKEFTLPNVVSIEEIDEKNGIITLTLPNNKKITLKVPKNAKITIEGSAG [r5_762_TrMRF]	3.04 ± 0.11	3.5 ± 0.049	3.37 ± 0.049
SAGGSAGGSAGPVTITIKVPKEDEEEIEALARELAAALPPPEGAKVTVERNEDGTITITLSAGGSAGGSAGG [r17_324_TrROS_Hall]	1.56 ± 0.15	1.6 ± 0.06	1.62 ± 0.12
SAGGSAGGSAGGSKELTVLVVEKNEDGTLTVRKFKIELKDGELKIVEEEEKTVPLEELKSAGGSAGGSAGGS [r4_389_TrROS_Hall]	1.41 ± 0.074	2.42 ± 0.037	2.04 ± 0.12
SAGGSAGGSAGGGMPSYVTKTTTTTVKITNTTTGGNSTTTTTSTVTVTTTTLLPPGLLASAGGSAGGSAGGS [r10_300_JUSTAS]	-0.147 ± 0.052	1.2 ± 0.028	0.835 ± 0.074
SAMVIPAEVRLPGTPEEVLEKAREFADTLAARFRELGFEVVAVELEEIEPGEAVVRLRIVVARPDEEFPSAG [r14_973_TrMRF]	2.75 ± 0.086	2.79 ± 0.03	2.85 ± 0.069
SAGGSAGGSALDDFKIEEVQYDPDGNTIRFIFKFPGQVWILRIRMPKNGKMEIEWIPADDISAGGSAGGSAG [r3_167_TrROS]	3.96 ± 0.21	4.36 ± 0.23	4.36 ± 0.18
